± gives the uncertainty stated by the source.
Assay: amyloid nucleation score (Sup35N fusion, yeast selection) (log enrichment); library NNK3; higher = more nucleation; inactive = no reads after selection
Procedure, shortened: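 Sup35N fusions to peptides of 20 random codons were expressed in psi-negative yeast, induced 24 hours with 100 μM copper sulfate, and grown 7 days at 30°C on medium lacking adenine and uracil. Input and output plasmid inserts were sequenced by Illumina. The nucleation score is the DiMSum log enrichment of output over input reads, centred on the mode score of non-aggregating sequences. Sequences with under 100 input reads were excluded.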

Substance	amyloid nucleation score
IGRVTSMGRMLHGNW	inactive
WRFFVVRKNSTSA	inactive
YRDRIGWQVVISII	-0.087 ± 0.27
FLRYGCMHYLGRMGLY	-0.079 ± 0.34
LCETCKNVARIYSFLIGMTD	inactive
KSVYMHTGPGKGNRVVEKCM	inactive
PGSLI	-0.219 ± 0.52
STAWALAIAAVDRNFDSGWW	0.009 ± 1.1
SNVSVHGMIESMLWLSTRDI	inactive
CFTVVPGSVMF	inactive
SSVSFQLEVCNQNVLYGIKI	inactive
DGPHLPDHGGLM	inactive
TYLLFGSTLGLSQWVYLDVE	inactive
GNVQFCRFFFDMSSLHDIMT	inactive
WYSCAKMANIHIVSVVTTST	inactive
DSIVICQFIFDIKFLDKRKC	1.77 ± 0.085
AMVKEFWVDSRHFIDRYSKC	inactive
TDKFWLIGDSTTSWIEVVFN	inactive
ESRKWAAEGPSFICTCLLSL	inactive
SHPYLT	0.071 ± 0.35
LSLCRNKSIKWVFSLMEIL	inactive
LFCLKIKLEAERRYLQGLRH	1.72 ± 0.09
SDYLRMVVTYPQTLLYQGTK	inactive

Substance	amyloid nucleation score
RFVLQ	inactive
HSLTENAKREIT	inactive
LRFRLNSRVYTTHNIKVPSL	inactive
SLCLYNSFLSSL	inactive
VAWRLFQNVWVHTGSDGYTV	-0.601 ± 1.1
RHREAGEATTSFNFMRMSGP	inactive
ISWWAMCACSARKVRF	inactive
YSEFPPTSKQ	inactive
TSWRVFVGYWMG	inactive
FANQPGVNYRFTPPSCCFLT	inactive
QWTSFLVLCCTNPRLGSSRV	2.67 ± 0.073
GMLGLMAGKNLEGADRL	inactive
RWELGIQALVR	inactive
AIDLKLAKSEWGWSALGWFL	inactive
IMVRSIISGFRLMESRKLDS	inactive
IWGPTADKSRSVIGSVIKQG	inactive
ETLYSCQKGGQRQRKAG	inactive
EFFYINAMPVLYIDPYTSCF	inactive
TLPLTHYVYVVMLKSSSTGC	inactive
CDFALCSRWQVVYVKKQGQW	2.1 ± 0.07
NRRNLSLFECLSSTGVSRVN	inactive
MLAGWSQFYGISRYLPENPV	inactive
LHFVVFAYYKRLMDSQIC	inactive

Substance	amyloid nucleation score
AVNFCMLWGVYASSQKNLGF	0.585 ± 0.32
SLYWSAMRKYNVVRTIYSRW	inactive
NMLVCITSDGLYFYCCGANS	1.5 ± 0.11
HLWVNRDQWLVVLTEFSRFW	inactive
ILGIIMI	inactive
GFLESCENLVQFKRARWSNI	inactive
VHTMEEVA	inactive
DCRWVCKFYPPVFNVIVEKV	inactive
FVFCLEGTGGVFDFGFGIGI	inactive
ESSLWYI	inactive
VFLKSNSAVQLSFRFNYHNL	inactive
IVVNR	inactive
SLGLKIVVLESYGVSPVCCH	inactive
RGRYWWFYYLAFICMKWYSG	inactive
VRRVQSLRPPAHVSLAPYRA	inactive
RSAERRAQNSNFKLVDLGRN	inactive
RNLSLDLT	inactive
HQKKMRFALR	inactive
ALVLNLDRVWVSLTDGPWSD	inactive
RAMLLGFSCMVWVPWGQFGK	0.649 ± 0.22
PTVKKLYMQLFLSPCISSEG	inactive
YEMENDVS	inactive
SNLVDGMSWHHFKERIVMLD	inactive

Substance	amyloid nucleation score
IEWLI	inactive
RGLRTKVGMSVRNCEYRYVM	-0.455 ± 1.1
NCLRLYQGSGKMFIIV	inactive
CRTQYKCRIAIWGYKFQPER	inactive
LKCFEMNYQYGRRLNNG	inactive
HIVPAVCT	inactive
MRSTNLACAGMHIN	inactive
LVNLCRIRRVLECVRRRHRS	inactive
DCLMDGDFRILGSFIHRFSE	inactive
GRISAKSVVTSWRGVGPYSV	inactive
WTSHPYWSL	inactive
CDIPFF	inactive
YASVEIFHWTFSGILYSWGH	inactive
VYFDDRTYRYRVAHIKFSFR	2.94 ± 0.076
QCVCLS	inactive
EMLCVDYWTFGYMVLREVTI	inactive
RCTELVKAISLVVVYIYDEG	inactive
LCLFGLLYNIETFSIVVDYS	inactive
ILYLRVYITFVLIGNLEGFR	inactive
LSSLYLCCYACPNMLLI	1.58 ± 0.11
YLLVLMVERF	inactive
LYSLVFWNDSSCRSRLVTWF	inactive
CVKVGDGCLHASIGAR	inactive

Substance	amyloid nucleation score
WRVSFTLS	inactive
IVIYLSHDKNLIQVRSSCEG	2.59 ± 0.056
YLVAKDVSCNWVVTDGRLCH	inactive
TTSCEVAWFEICLSSLNFTM	inactive
CRLVAEYGLQVKPMQR	inactive
FSPTIGTTWDTLMF	inactive
LLECNRTMPQLMVWEVFCSV	inactive
FSKFQTYVSHMVVYGIMSGN	inactive
VKWWGAES	inactive
ANAFTGIRCVQVRRRCSLDM	inactive
SRFRFMGNVRQFLQPYRRLH	0.347 ± 0.2
IIHLNLSNVWYTPSGWYRVC	2.3 ± 0.063
IRCMSLYLHNGGVYRS	1.72 ± 0.069
GFRRRSMDALSVTVDSVVAP	inactive
SPDTVPIGGSSGTNVYLCMH	inactive
CYMVEDRRIDSRSAVSWRYV	inactive
LVEIVLYWSRVWYWTRGSNV	inactive
AQILYYLYYT	inactive
VTHLPTDIGMC	0.894 ± 0.12
TRSWVYCSKDRSMRGMHHHC	inactive
AIMLVSLC	inactive
TPKLAALFS	-0.497 ± 1.3
FSCDHLGWLVVSVCSGLRWL	inactive

Substance	amyloid nucleation score
FYTWLPCVYSN	-0.335 ± 1.7
MYVWLRCKLIGNSFLRVKCS	inactive
ILILS	inactive
RANESTLM	inactive
KSMATMSQIVPDSFSEFDWY	inactive
VFSEWYVFHGQEVSTIHCAH	inactive
YMVHDHFKSNFRMCGCGYFN	inactive
PNGSYAKQLLVSIL	inactive
SIDLNGKG	inactive
PFPRNGLFHLFWYGLCYMAL	inactive
SWPSASSFDSR	inactive
TQRVGERGIIMYHPWIGYYV	0.189 ± 0.26
DFLVVYNAMCDKELVDTGEI	inactive
HLGKPKEFMTIAGGLHCLML	inactive
RMYRGWLVPDAARSKGCRVM	inactive
LYRPCLWSDWRT	inactive
GFFELYS	inactive
RLIILNVFVSDNTNWLHRIH	1.37 ± 0.083
NGKWKGWSS	inactive
KIFYYTWYSLSYTIQLYGLQ	inactive
YLSINTAEYHFQEQVLVFVY	inactive
TDIFKSFIRNMNLVWFRVMT	inactive
NFMCFLVFHDLYEGQGYELR	2.3 ± 0.089

Substance	amyloid nucleation score
WLKWFLRTCNMVKIFASPFF	inactive
MHGTI	inactive
YSNWLTSRNYTNLLLL	inactive
YDLRAALKV	inactive
EWKWQSKHTITYFLHHCSEH	0.534 ± 0.15
YGNVIFRFVRADERI	0.314 ± 0.35
DLTMVQLMIFMLIIIFFNLL	inactive
ELEYAHVIRGKKRCHSSRVV	inactive
SFRFWSFYTCGEYKWDGTKG	inactive
RCDKIWQASVMGSDIRDL	inactive
PSKPRTGQVGGVYHLCVVFW	inactive
AVLWIVSGGTYESVDLNYWC	0.837 ± 0.13
NSCYRRHMCWCFSKAEFLTL	inactive
LSNLRGYNH	inactive
HVPGRIWDVFTRLLNEVLTN	inactive
VSIKSRLRCLSVVQDNSRCV	inactive
YWQDGQ	inactive
IFHFAATHEWYIMYYIDGSP	inactive
QICRGCRYVNVYYVPLSLDL	1.32 ± 0.095
KGETEPYKDSMLQKLTGQLQ	inactive
TCRMVRGSMMDSAVV	inactive

From the supplement of paper PMC12042874
